The text below walks through data of FireProtDB (doi:10.1002/pro.5560041207).

The conditions of this data set: Cereibacter sphaeroides, pH 7.4, 23 °C, Urea, Fluorescence, whole UniProt chain shown.

B1: Thioredoxin wild type, P08058 (protein)
chain: MSTVPVTDATFDTEVRKSDVPVVVDFWAEWCGPCRQIGPALEELSKEYAGKVKIVKVNVDENPESPAMLGVRGIPALFLFKNGQVVSNKVGAAPKAALATWIASAL
With B1, the unfolding free energy reads like this: (Potassium phosphate 20 mM) 8.2 kcal/mol; (Potassium phosphate 20mM) 8.13 kcal/mol.
